# Tested on: Escherichia coli TOP10
# Test: shrunken log2 fold change of peptide-encoding DNA abundance (4.5 h post-induction vs induction); higher = less antimicrobial activity (less host growth inhibition)
# Details: time post-induction: 4.5 h; library: site-saturation at positions 5, 18, 19, 20
# 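Further: peptides expressed intracellularly from a pBAD plasmid library in pooled LB shake-flask culture, induced with 0.3% L-arabinose, DNA abundance read by NGS, three biological replicates, DESeq2 with apeglm shrinkage.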
row,Sequence,shrunken log2 fold change
1,RRIRRRPPRLPRPRPRPDCLPRP,-0.136
2,RRIRVRPPRLPRPRPRPLKKPRP,0.181
3,RRIRLRPPRLPRPRPRPQESPRP,0.133
4,RRIRPRPPRLPRPRPRPSGGPRP,0.191
5,RRIRIRPPRLPRPRPRPVKHPRP,-0.107
6,RRIRCRPPRLPRPRPRPWDDPRP,0.0755
7,RRIRRRPPRLPRPRPRPFRVPRP,0.12
8,RRIRMRPPRLPRPRPRPFCLPRP,-0.15
9,RRIRCRPPRLPRPRPRPAQMPRP,0.224
10,RRIRPRPPRLPRPRPRPCGRPRP,0.302
11,RRIRYRPPRLPRPRPRPCFMPRP,-0.675
12,RRIRMRPPRLPRPRPRPHEGPRP,0.443
13,RRIRVRPPRLPRPRPRPKGWPRP,0.684
14,RRIRMRPPRLPRPRPRPLDSPRP,0.204
15,RRIRTRPPRLPRPRPRPNYFPRP,-0.062
16,RRIRMRPPRLPRPRPRPNFEPRP,0.422
17,RRIRGRPPRLPRPRPRPALHPRP,0.866
18,RRIRSRPPRLPRPRPRPIYPPRP,-0.766
19,RRIRKRPPRLPRPRPRPELVPRP,0.133
20,RRIRWRPPRLPRPRPRPFSDPRP,-0.0111
21,RRIRERPPRLPRPRPRPGHSPRP,-0.134
22,RRIRARPPRLPRPRPRPCMFPRP,0.0445
23,RRIRRRPPRLPRPRPRPPMGPRP,0.554
24,RRIRRRPPRLPRPRPRPWRPPRP,0.734
25,RRIRFRPPRLPRPRPRPMQSPRP,-0.208

row,Sequence,shrunken log2 fold change
1,RRIRDRPPRLPRPRPRPMNEPRP,0.202
2,RRIRFRPPRLPRPRPRPWKVPRP,-0.00133
3,RRIRCRPPRLPRPRPRPEIMPRP,-0.0581
4,RRIRSRPPRLPRPRPRPSLSPRP,-0.0859
5,RRIRRRPPRLPRPRPRPPVSPRP,0.332
6,RRIRQRPPRLPRPRPRPNENPRP,-0.0578
7,RRIRTRPPRLPRPRPRPGFLPRP,0.122
8,RRIRNRPPRLPRPRPRPHWRPRP,0.201
9,RRIRIRPPRLPRPRPRPAPGPRP,0.371
10,RRIRMRPPRLPRPRPRPWATPRP,0.194
11,RRIRVRPPRLPRPRPRPQHEPRP,-0.245
12,RRIRPRPPRLPRPRPRPLRGPRP,0.792
13,RRIRGRPPRLPRPRPRPDVTPRP,1.31
14,RRIRTRPPRLPRPRPRPTNNPRP,-0.618
15,RRIRTRPPRLPRPRPRPWKAPRP,0.0456
16,RRIRCRPPRLPRPRPRPFHTPRP,-0.0266
17,RRIRWRPPRLPRPRPRPARMPRP,0.362
18,RRIRHRPPRLPRPRPRPMLLPRP,0.0408
19,RRIRERPPRLPRPRPRPQIQPRP,0.136
20,RRIRCRPPRLPRPRPRPAHIPRP,-0.0847
21,RRIRQRPPRLPRPRPRPRFPPRP,0.0593
22,RRIRWRPPRLPRPRPRPWVLPRP,0.287
23,RRIRLRPPRLPRPRPRPDSRPRP,0.0292
24,RRIRIRPPRLPRPRPRPKRFPRP,0.276
25,RRIRHRPPRLPRPRPRPVQIPRP,-0.0126
